Experimental data taken from patent publication US20240358731A1, “SUMO PATHWAY AS AN OXYGEN SENSOR RELEVANT TO THE PATHOPHYSIOLOGY OF PULMONARY ARTERY HYPERTENSION AND CARDIAC ARRHYTHMIA” (Northeastern University, priority 2023, published 2024).
Blank lines part the entries; values can stand above or below the molecule they belong to.

Target: T1, Kir2.1-mediated IK1 current (Rattus norvegicus, UniProt Q64273)
T1 construct: endogenous in cells; host or cells: rat ventricular cardiomyocytes (RVCMs)
T1 sequence (Q64273 1-427): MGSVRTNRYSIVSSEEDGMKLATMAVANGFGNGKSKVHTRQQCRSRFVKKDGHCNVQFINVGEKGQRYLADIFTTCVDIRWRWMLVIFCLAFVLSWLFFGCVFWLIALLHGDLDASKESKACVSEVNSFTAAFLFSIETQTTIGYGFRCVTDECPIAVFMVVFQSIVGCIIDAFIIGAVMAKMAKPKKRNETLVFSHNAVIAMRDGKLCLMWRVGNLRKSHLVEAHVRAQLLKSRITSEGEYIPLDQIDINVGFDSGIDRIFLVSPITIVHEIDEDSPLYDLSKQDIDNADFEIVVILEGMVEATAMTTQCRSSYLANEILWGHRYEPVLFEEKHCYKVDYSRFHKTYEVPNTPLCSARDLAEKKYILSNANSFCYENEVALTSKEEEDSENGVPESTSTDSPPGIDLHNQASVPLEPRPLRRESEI
Experiment: Whole-cell patch-clamp of IK1 in rat ventricular cardiomyocytes under acute hypoxia
Assay type: cell-based
Conditions: for effect on hypoxic inhibition of IK1: ambient O2 to 2% O2, agent in pipette (SENP1 2 μM, SUMO1 1 μM, diC8-PIP2) or pretreatment (TAK981)
Procedure: IK1 in rat ventricular cardiomyocytes studied by whole-cell patch-clamp. Hypoxia was a drop in O2 from ambient levels to 2%, measured at the cell. The time-course of hypoxic-inhibition was studied by recording the magnitude of IK1 every second. Cells were studied with the following pipette solutions: control, SUMO1 (1 μM) or SENP1 (2 μM). IK1 was blocked by the addition of 3 mM Ba^2+. […] Left, representative current sweeps; right, a representative time course showing the kinetics of hypoxic inhibition in cardiomyocytes studied with control pipette solution. The inhibition is precluded by including SENP1 (2 μM, magenta) in the recording pipette. The reverse ramp recording protocol is inset. […] SENP1 augments IK1 and protects the current from hypoxia. Data are from 8-10 RVCMs per group, **** P<0.0001, paired, two-tailed Student's […]. […] Representative data are shown with DAPI labeled nuclei and PLA interactions. Summary data are obtained from multiple experiments each with multiple fields of view containing 20-30 nuclei. The scale bar is 10 μm.
To knockdown Kir2.1 expression, RVCMs were transduced with lentiviral particles carrying cGFP and shRNA targeting KCNJ2-mRNA for the channel. Kir2.1 knockdown cells (Kir2.1kd-CMs) were identified by expression of cGFP. Cells were studied with control pipette solution, or with pipette solutions containing purified SUMO1 (1 μM) or SENP1 (2 μM). Where indicated, the control pipette solution contained diC8 PIP2. Paired patch-clamp data were analyzed by Students t-test; ***, P<0.01. […] Kir2.1kd-CMs are identified by expression of GFP (inset, scale bar=10 μm). […] The arrow indicates the change in current-magnitude between exposure to ambient O2 and 2% O2 in the same cell. Right, Concentration-response curve showing that including diC8-PIP2 in the pipette opposes hypoxic-inhibition of IK1 in control RVCMs and RVCMs expressing the scrambled shRNA. The hypoxic-response is diminished in Kir2.1kd-CMs. Data are mean±s.d. for 7-8 cells per condition. […] Current inhibition is diminished when SENP1 is included in the recording pipette and is not observed when SUMO-insensitive Kir2.1-K49Q channels are studied. Data are mean±s.d. for 6 cells per condition.
Hypoxic-inhibition of Kir2.1 in cardiomyocytes via SUMOylation. We studied the effects of acute hypoxia on IK1 in rat ventricular cardiomyocytes (RVCMs) by whole cell patch-clamp recording. […] Both the hypoxia-sensitive and insensitive components of the current were blocked by Ba^2+ (3 mM), consistent with the known role of Kir2 channels in mediating IK1 (FIG. 1a). To determine if SUMOylation mediates the hypoxic inhibition of IK1 we introduced purified SENP1 (2 μM) to the cytosol via the recording pipette. […] Both the SUMO1 and hypoxia-mediated inhibition of IK1 remained stable throughout the remainder of the experiment (up to 10 mins). […] Next, we visualized and quantified the interactions between native Kir2.1 and SUMO1 in RVCMs using the proximity-ligation association (PLA) assay with antibodies we validated in heterologous cells by Western blot. […] The validated Kir2 antibodies were paired with SUMO1 antibodies that we have tested and utilized before. Under control conditions, interactions were observed between Kir2.1 and SUMO1, but not between Kir2.2 or Kir2.3 and SUMO1. […] Although cardiomyocytes are typically cultured at 21% O2, the O2-level in the myocardium is estimated to be in the range of 5-10% O2, under physiological conditions.
Hypoxic-inhibition of IK1/Kir2.1 is reduced by diC8-PIP2 in a concentration-dependent manner. We have shown that adding the exogenous, soluble PIP2 analog diC8-PIP2 into the patch-pipette opposes hypoxic-inhibition of IK1 (FIG. 4). […] As before, the effects of hypoxia were ameliorated by SENP1 (2 μM) and were not observed in the SUMO and hypoxia insensitive Kir2.1-K49Q channels (FIG. 4D).

Molecule: Cc1sc(C(=O)c2cncnc2N[C@@H]2C[C@H](COS(N)(=O)=O)[C@@H](O)C2)cc1[C@@H]1NCCc2ccc(Cl)cc21 [TAK981, Subasumstat]
effect on hypoxic inhibition of IK1: precludes hypoxic inhibition of Kir2 currents

decrease in IK1 (SUMO1 1 μM in recording pipette): 48±8%
Molecule: SUMO1: purified SUMO1 (small ubiquitin-related modifier) protein introduced via the recording pipette or co-expressed
effect on hypoxic inhibition of IK1: hypoxia-sensitive component of the current was abolished

effect on hypoxic inhibition of IK1: insensitive to hypoxia
increase in IK1 (purified SENP1 2 μM via recording pipette, mean±S.D.): 17.6±6.5%
B1: SENP1: purified deSUMOylating enzyme (SUMO specific protease) introduced via the recording pipette or expressed (protein, UniProt Q9P0U3 1-644, looked up)
Sentrin-specific protease 1: MDDIADRMRMDAGEVTLVNHNSVFKTHLLPQTGFPEDQLSLSDQQILSSRQGHLDRSFTCSTRSAAYNPSYYSDNPSSDSFLGSGDLRTFGQSANGQWRNSTPSSSSSLQKSRNSRSLYLETRKTSSGLSNSFAGKSNHHCHVSAYEKSFPIKPVPSPSWSGSCRRSLLSPKKTQRRHVSTAEETVQEEEREIYRQLLQMVTGKQFTIAKPTTHFPLHLSRCLSSSKNTLKDSLFKNGNSCASQIIGSDTSSSGSASILTNQEQLSHSVYSLSSYTPDVAFGSKDSGTLHHPHHHHSVPHQPDNLAASNTQSEGSDSVILLKVKDSQTPTPSSTFFQAELWIKELTSVYDSRARERLRQIEEQKALALQLQNQRLQEREHSVHDSVELHLRVPLEKEIPVTVVQETQKKGHKLTDSEDEFPEITEEMEKEIKNVFRNGNQDEVLSEAFRLTITRKDIQTLNHLNWLNDEIINFYMNMLMERSKEKGLPSVHAFNTFFFTKLKTAGYQAVKRWTKKVDVFSVDILLVPIHLGVHWCLAVVDFRKKNITYYDSMGGINNEACRILLQYLKQESIDKKRKEFDTNGWQLFSKKSQEIPQQMNGSDCGMFACKYADCITKDRPINFTQQHMPYFRKRMVWEILHRKLL
